In patent US8420776 (US Dept. of Health and Human Services, dated 2013):

B3: GST fusion of the entire gp78 cytoplasmic tail (gp78C; residues 309-643 of SEQ ID NO:2) (other)
chain: IRRHKNYLRVVGNMEARFAVATPEELAVNNDDCAICWDSMQAARKLPCGHLFHNSCLRSWLEQDTSCPTCRMSLNIADNNRVREEHQGENLDENLVPVAAAEGRPRLNQHNHFFHFDGSRIASWLPSFSVEVMHTTNILGITQASNSQLNAMAHQIQEMFPQVPYHLVLQDLQLTRSVEITTDNILEGRIQVPFPTQRSDSIRPALNSPVERPSSDQEEGETSAQTERVPLDLSPRLEETLDFGEVEVEPSEVEDFEARGSRFSKSADERQRMLVQRKDELLQQARKRFLNKSSEDDAASESFLPLEGASSDPVTLRRRMLAAAAERRLQKQQTS
notes: also called gp78 cytoplasmic domain; not shown: glutathione S-transferase (GST) fusion partner, N-terminal (pGEX type vector)
B5: yeast Ubc7p, in vitro translated and labelled with 35S-methionine (enzyme, UniProt Q02159 1-165, looked up)
chain: MSKTAQKRLLKELQQLIKDSPPGIVAGPKSENNIFIWDCLIQGPPDTPYADGVFNAKLEFPKDYPLSPPKLTFTPSILHPNIYPNGEVCISILHSPGDDPNMYELAEERWSPVQSVEKILLSVMSMLSEPNIESGANIDACILWRDNRPEFERQVKLSILKSLGF
modifications: 35S-methionine label
B7: Ube2G2/MmUbc7, in vitro translated and labelled with 35S-methionine (enzyme)
chain: MAGTALKRLMAEYKQLTLNPPEGIVAGPMNEENFFEWEALIMGPEDTCFEFGVFPAILSFPLDYPLSPPKMRFTCEMFHPNIYPDGRVCISILHAPGDDPMGYESSAERWSPVQSVEKILLSVVSMLAEPNDESGANVDASKMWRDDREQFYKIAKQIVQKSLGL
modifications: 35S-methionine label
notes: Translated in wheat germ or rabbit reticulocyte lysate; also called in vitro translated Ube2G2

What was measured:
[1] = target: UbcH5B, in vitro translated and labelled with 35S-methionine (human, UniProt P62837 1-147); experiment: GST pull-down, E2 translated in wheat germ and labelled with 35S-Met, equal counts
[2] = target: T1, N-terminal GFP fusion of gp78 residues 574-611 (GFP-574-611) (human, UniProt P42212 1-238 = GFP); experiment: co-immunoprecipitation with GFP fusion from HEK 293T cells
T1 construct: the vector encodes the enhanced variant; also called G2BD

[3] = target: B7; experiment: GST pull-down, E2 translated in wheat germ and labelled with 35S-Met, equal counts
[4] = target: T2, lysine 48-linked (K48) tetra-ubiquitin (UniProt P0CG48 1-76, four ubiquitins joined by lysine 48 isopeptide links); experiment: GST pull-down, anti-ubiquitin immunoblot
T2 construct: the monomer is its first 76 residues

[5] = target: B3; experiment: GST pull-down, E2 in vitro translated in wheat germ
[6] = target: T3, GST fusion of the cytoplasmic domain of yeast Cue1p (Cue1p 24-203) (yeast, UniProt P38428 24-203); experiment: as above
T3 construct: range 24-203; also called GST-Cue1p 24-203; not shown: glutathione S-transferase (GST) fusion partner, N-terminal (pGEX4T-1)
T3 sequence (looked up): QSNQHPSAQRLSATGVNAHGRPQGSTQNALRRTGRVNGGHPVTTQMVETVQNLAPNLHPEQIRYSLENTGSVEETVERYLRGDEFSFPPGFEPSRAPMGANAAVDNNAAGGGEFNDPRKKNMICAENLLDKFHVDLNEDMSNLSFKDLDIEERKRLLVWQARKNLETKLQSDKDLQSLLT

[7] = target: B3; experiment: GST pull-down
[8] = target: B5; experiment: GST pull-down, E2 in vitro translated in wheat germ
[9] = target: T4, Myc-Ube2G2, co-expressed in HEK 293T cells (human (100% identical to mouse MmUbc7), UniProt P60604 1-165); experiment: anti-Myc immunoprecipitation from co-transfected cells, anti-gp78 immunoblot
T4 construct: Plasmid described in Tiwari and Weissman, 2001; also called Myc-MmUbc7; myc-tagged MmUbc7/Ube2G2
T4 sequence: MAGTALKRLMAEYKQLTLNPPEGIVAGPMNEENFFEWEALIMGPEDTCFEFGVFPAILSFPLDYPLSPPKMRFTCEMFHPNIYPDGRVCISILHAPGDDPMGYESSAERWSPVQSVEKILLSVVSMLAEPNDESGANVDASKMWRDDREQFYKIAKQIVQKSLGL

Chain of UbcH5B, in vitro translated and labelled with 35S-methionine (P62837 whole entry, the tested form may be a part): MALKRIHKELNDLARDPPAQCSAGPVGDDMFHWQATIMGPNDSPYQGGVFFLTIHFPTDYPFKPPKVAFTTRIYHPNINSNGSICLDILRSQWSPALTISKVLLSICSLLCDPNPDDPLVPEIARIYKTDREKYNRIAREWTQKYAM

B1: GST-AO7 (92 to 259), the RING finger and surrounding regions of the E3 AO7 (other)
chain: QIHKISQALGHVAKEGLGTAMLYELIEKGKEILTDNNIPHGQCVICLYGFQEKEAFTKTPCYHYFHCHCLARYIQHMEQELTTQEQEQERQHVVTKQKAVGVQCPVCREPLVYDLASLKAAPEPQQPMELYQPSAESLRQQEELKLLYQRQQEKGGIIDLEAERNRYF
notes: range 92-259; also called A07; not shown: glutathione S-transferase (GST) fusion partner
[1]
  amount bound (% of input): ~10 % of input

B2: endogenous Ube2g1 of HEK 293T cells (enzyme, human, UniProt P62253 2-170, looked up)
chain: TELQSALLLRRQLAELNKNPVEGFSAGLIDDNDLYRWEVLIIGPPDTLYEGGVFKAHLTFPKDYPLRPPKMKFITEIWHPNVDKNGDVCISILHEPGEDKYGYEKPEERWLPIHTVETIMISVISMLADPNGDSPANVDAAKEWREDRNGEFKRKVARCVRKSQETAFE
[2]
  binding result: no binding

## B3
[3]
  amount bound (% of input): ~10 % of input

B4: GST-gp78Cuem2: gp78 C-terminal region with VLQDL to RLQVD mutation of residues 476 to 480 (other)
chain: IRRHKNYLRVVGNMEARFAVATPEELAVNNDDCAICWDSMQAARKLPCGHLFHNSCLRSWLEQDTSCPTCRMSLNIADNNRVREEHQGENLDENLVPVAAAEGRPRLNQHNHFFHFDGSRIASWLPSFSVEVMHTTNILGITQASNSQLNAMAHQIQEMFPQVPYHLRLQVDQLTRSVEITTDNILEGRIQVPFPTQRSDSIRPALNSPVERPSSDQEEGETSAQTERVPLDLSPRLEETLDFGEVEVEPSEVEDFEARGSRFSKSADERQRMLVQRKDELLQQARKRFLNKSSEDDAASESFLPLEGASSDPVTLRRRMLAAAAERRLQKQQTS
notes: not shown: glutathione S-transferase (GST) fusion partner, N-terminal (pGEX type vector)
[4]
  binding result: no binding (tested: 1 ug K48 tetra-ubiquitin)

## B5
[5]
  binding result: no binding
[6]
  binding result: binds

B6: GST-gp78CCue-m1: complete C-terminal region of gp78 with MFP to GGR mutation of residues 467 to 469 (other)
chain: IRRHKNYLRVVGNMEARFAVATPEELAVNNDDCAICWDSMQAARKLPCGHLFHNSCLRSWLEQDTSCPTCRMSLNIADNNRVREEHQGENLDENLVPVAAAEGRPRLNQHNHFFHFDGSRIASWLPSFSVEVMHTTNILGITQASNSQLNAMAHQIQEGGRQVPYHLVLQDLQLTRSVEITTDNILEGRIQVPFPTQRSDSIRPALNSPVERPSSDQEEGETSAQTERVPLDLSPRLEETLDFGEVEVEPSEVEDFEARGSRFSKSADERQRMLVQRKDELLQQARKRFLNKSSEDDAASESFLPLEGASSDPVTLRRRMLAAAAERRLQKQQTS
notes: as for B4
[4]
  binding result: no binding (tested: 1 ug K48 tetra-ubiquitin)

## B7
[7]
  binding result: binds

B8: GST-gp78CCue-m1, 2: gp78 C-terminal region with both sets of Cue domain mutations (other)
chain: IRRHKNYLRVVGNMEARFAVATPEELAVNNDDCAICWDSMQAARKLPCGHLFHNSCLRSWLEQDTSCPTCRMSLNIADNNRVREEHQGENLDENLVPVAAAEGRPRLNQHNHFFHFDGSRIASWLPSFSVEVMHTTNILGITQASNSQLNAMAHQIQEGGRQVPYHLRLQVDQLTRSVEITTDNILEGRIQVPFPTQRSDSIRPALNSPVERPSSDQEEGETSAQTERVPLDLSPRLEETLDFGEVEVEPSEVEDFEARGSRFSKSADERQRMLVQRKDELLQQARKRFLNKSSEDDAASESFLPLEGASSDPVTLRRRMLAAAAERRLQKQQTS
notes: as for B4
[4]
  binding result: no binding (tested: 1 ug K48 tetra-ubiquitin)

B9: Ube2G1, in vitro translated and labelled with 35S-methionine (enzyme, rat, UniProt P62255 1-170, looked up)
chain: MTELQSALLLRRQLAELNKNPVEGFSAGLIDDNDLYRWEVLIIGPPDTLYEGGVFKAHLTFPKDYPLRPPKMKFITEIWHPNVDKNGDVCISILHEPGEDKYGYEKPEERWLPIHTVETIMISVISMLADPNGDSPANVDAAKEWREDRNGEFKRKVARCVRKSQETAFE
modifications: 35S-methionine label
notes: also called rat Ubc7 (Ube2g1)
[5]
  binding result: no binding
[6]
  binding result: no binding

B10: GST fusion of the gp78 cytoplasmic tail beginning after the RING finger (residues 429-643 of SEQ ID NO:2) (other)
chain: IASWLPSFSVEVMHTTNILGITQASNSQLNAMAHQIQEMFPQVPYHLVLQDLQLTRSVEITTDNILEGRIQVPFPTQRSDSIRPALNSPVERPSSDQEEGETSAQTERVPLDLSPRLEETLDFGEVEVEPSEVEDFEARGSRFSKSADERQRMLVQRKDELLQQARKRFLNKSSEDDAASESFLPLEGASSDPVTLRRRMLAAAAERRLQKQQTS
notes: also called gp78CΔR; gp78CAR; not shown: GST carrier and the pGEX4T-1 linker (N-terminal)
[3]
  amount bound (% of input): ~10 % of input
[8]
  binding result: no binding

B11: full length gp78 with both Cue domain mutations (gp78Cue-m1, 2) (enzyme)
chain: MPLLFLERFPWPSLRTYTGLSGLALLGTIISAYRALSQPEAGPGEPDQLTASLQPEPPAPARPSAGGPRARDVAQYLLSDSLFVWVLVNTACCVLMLVAKLIQCIVFGPLRVSERQHLKDKFWNFIFYKFIFIFGVLNVQTVEEVVMWCLWFAGLVFLHLMVQLCKDRFEYLSFSPTTPMSSHGRVLSLLVAMLLSCCGLAAVCSITGYTHGMHTLAFMAAESLLVTVRTAHVILRYVIHLWDLNHEGTWEGKGTYVYYTDFVMELTLLSLDLMHHIHMLLFGNIWLSMASLVIFMQLRYLFHEVQRRIRRHKNYLRVVGNMEARFAVATPEELAVNNDDCAICWDSMQAARKLPCGHLFHNSCLRSWLEQDTSCPTCRMSLNIADNNRVREEHQGENLDENLVPVAAAEGRPRLNQHNHFFHFDGSRIASWLPSFSVEVMHTTNILGITQASNSQLNAMAHQIQEGGRQVPYHLRLQVDQLTRSVEITTDNILEGRIQVPFPTQRSDSIRPALNSPVERPSSDQEEGETSAQTERVPLDLSPRLEETLDFGEVEVEPSEVEDFEARGSRFSKSADERQRMLVQRKDELLQQARKRFLNKSSEDDAASESFLPLEGASSDPVTLRRRMLAAAAERRLQKQQTS
notes: Full length, expressed in cells; also called Cue12M
[9]
  binding result: binds

B12: full length gp78 with the E2-m2 mutation (gp78E2-m2) (enzyme)
chain: MPLLFLERFPWPSLRTYTGLSGLALLGTIISAYRALSQPEAGPGEPDQLTASLQPEPPAPARPSAGGPRARDVAQYLLSDSLFVWVLVNTACCVLMLVAKLIQCIVFGPLRVSERQHLKDKFWNFIFYKFIFIFGVLNVQTVEEVVMWCLWFAGLVFLHLMVQLCKDRFEYLSFSPTTPMSSHGRVLSLLVAMLLSCCGLAAVCSITGYTHGMHTLAFMAAESLLVTVRTAHVILRYVIHLWDLNHEGTWEGKGTYVYYTDFVMELTLLSLDLMHHIHMLLFGNIWLSMASLVIFMQLRYLFHEVQRRIRRHKNYLRVVGNMEARFAVATPEELAVNNDDCAICWDSMQAARKLPCGHLFHNSCLRSWLEQDTSCPTCRMSLNIADNNRVREEHQGENLDENLVPVAAAEGRPRLNQHNHFFHFDGSRIASWLPSFSVEVMHTTNILGITQASNSQLNAMAHQIQEMFPQVPYHLVLQDLQLTRSVEITTDNILEGRIQVPFPTQRSDSIRPALNSPVERPSSDQEEGETSAQTERVPLDLSPRLEETLDFGEVEVEPSEVEDFEARGSRFSKSADERAAAGGGRKDELLQQARKRFLNKSSEDDAASESFLPLEGASSDPVTLRRRMLAAAAERRLQKQQTS
notes: Full length, expressed in cells; also called ΔB in the context of the full length gp78
[9]
  binding result: no binding
